# From PMC12824264
# Target: BMP9 growth factor domain (GFD) dimer (human) (UniProt Q9UK05)
# Experiment: ELISA; displacement assay: anti-human CD105 antibody coated; sENG(M):BMP9 or sENG(D):BMP9 captured 2 h at room temperature; BMPRII or ActRIIB ECD at 0x, 1x, 5x, 25x, 125x molar excess for 30 min; BMP9 left in the complex detected with biotinylated anti-BMP9
# BMP9 growth factor domain (GFD) dimer (human), sequence (Q9UK05 320-429): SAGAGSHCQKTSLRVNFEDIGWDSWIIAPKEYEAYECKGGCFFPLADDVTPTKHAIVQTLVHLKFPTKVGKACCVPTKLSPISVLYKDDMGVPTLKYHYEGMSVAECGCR
substance,measurement,value
BMP receptor type II (BMPRII) extracellular domain (from UniProt Q13873 27-150) (domain or fragment),percent displacement of sENG from the sENG(D):BMP9 complex at 125-fold molar excess,> 50%
